Source: PMC5069622, “Crystal structure of human aldehyde dehydrogenase 1A3 complexed with NAD^+ and retinoic acid” (Scientific Reports, 2016)

Target: the molecule itself
Experiment: SEC; gel filtration of the purified protein, data not shown; native molecular mass of about 224000 Da

B1: human aldehyde dehydrogenase 1A3 (enzyme, UniProt P47895 1-512, looked up)
chain: MATANGAVENGQPDRKPPALPRPIRNLEVKFTKIFINNEWHESKSGKKFATCNPSTREQICEVEEGDKPDVDKAVEAAQVAFQRGSPWRRLDALSRGRLLHQLADLVERDRATLAALETMDTGKPFLHAFFIDLEGCIRTLRYFAGWADKIQGKTIPTDDNVVCFTRHEPIGVCGAITPWNFPLLMLVWKLAPALCCGNTMVLKPAEQTPLTALYLGSLIKEAGFPPGVVNIVPGFGPTVGAAISSHPQINKIAFTGSTEVGKLVKEAASRSNLKRVTLELGGKNPCIVCADADLDLAVECAHQGVFFNQGQCCTAASRVFVEEQVYSEFVRRSVEYAKKRPVGDPFDVKTEQGPQIDQKQFDKILELIESGKKEGAKLECGGSAMEDKGLFIKPTVFSEVTDNMRIAKEEIFGPVQPILKFKSIEEVIKRANSTDYGLTAAVFTKNLDKALKLASALESGTVWINCYNALYAQAPFGGFKMSGNGRELGEYALAEYTEVKTVTIKLGDKNP
notes: human ALDH1A3, full-length open reading frame amplified from cDNA of the mesenchymal glioma stem cell line 83 and cloned into pDEST17; predicted molecular weight 56108 Da; Crystallised after pre-incubation with 1 mM NAD+ and 1 mM all-trans retinoic acid; No removal of the His tag is described; In the crystal no density for the N-terminal portion and the last four residues; also called ALDH1A3; …
stoichiometry N: 4
